The target of assay [1] is T1, recombinant ZIKV DIII (domain III of the E protein, strain H/PF/2013, residues 299 to 407) (Zika virus, strain H/PF/2013, UniProt A0A024B7W1 591-694).
Assay [2] addresses T1, recombinant ZIKV DIII (domain III of …). Nature of the assay: BLI, equilibrium. In general terms: BLI is a label-free optical method that tracks binding on a fibre tip over time.
Assay [3] addresses ZIKV strain H/PF/2013 (French Polynesia, 2013), infectious virus (Zika virus, strain H/PF/2013). Nature of the assay: cell-based or functional assay.
The target in assay [4] is T2, recombinant WNV E ectodomain (strain New York 1999) (West Nile virus, strain New York 1999, UniProt Q9Q6P4 291-694).
T2 construct: range 291-694
T2 sequence: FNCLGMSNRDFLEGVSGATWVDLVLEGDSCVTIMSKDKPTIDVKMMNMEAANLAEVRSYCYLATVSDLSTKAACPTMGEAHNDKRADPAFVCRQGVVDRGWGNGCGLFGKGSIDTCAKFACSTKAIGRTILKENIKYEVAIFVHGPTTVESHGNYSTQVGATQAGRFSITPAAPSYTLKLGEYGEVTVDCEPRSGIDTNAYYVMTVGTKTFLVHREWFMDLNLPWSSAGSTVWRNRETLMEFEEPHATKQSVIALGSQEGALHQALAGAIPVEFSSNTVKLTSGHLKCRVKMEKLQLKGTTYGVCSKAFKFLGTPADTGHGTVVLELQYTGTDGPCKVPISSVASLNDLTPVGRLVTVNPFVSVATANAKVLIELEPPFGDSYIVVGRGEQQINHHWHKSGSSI
Nature of the assay: ELISA on plate-adsorbed WNV E.

In assay [5] the target is T3, DENV4 E.
T3 construct: also called DV4-E; recombinant DENV-4 E ectodomain
Nature of the assay: direct ELISA, antigen coated at 2 µg/ml, OD 450 nm. (In general: An ELISA detects its analyte on a solid surface through an enzyme-linked reagent.)

In assay [6] the target is T1, recombinant ZIKV DIII (domain III of …). Nature of the assay: BLI; half-life calculated from the dissociation constant, kd kinetic.
Assay [7] shares this target. Nature of the assay: BLI, biotinylated mAb on streptavidin sensor, DIII in solution; KD (equilibrium).
The target in assay [8] is T4, recombinant soluble ZIKV E protein ectodomain (strain H/PF/2013) (Zika virus, strain H/PF/2013).
T4 construct: also called ZIKV E ectodomain; monomeric form of the ectodomain of E
Nature of the assay: direct ELISA, antigen coated at 2 µg/ml, mAb at 0.5 µg/ml, OD 450 nm.

Assay [9] addresses T5, ZIKV quad-fusion-loop variant of the E ectodomain (ZIKV E-FL) (Zika virus, strain H/PF/2013).
T5 construct: Variant of m8
The assay is described as above.

Assay [10] concerns the target T6, ZIKV.
T6 construct: also called ZIKV H/PF/2013-infected Vero cells
Nature of the assay: flow cytometry, infected cells fixed and permeabilized, mAb at 10 µg/ml, Alexa Fluor 647 anti-mouse IgG.

Assay [11] addresses T1, recombinant ZIKV DIII (domain III of …). The source holds these as a separate data set.
For assay [12] the target is unchanged. The source holds these as a separate data set.
Assay [13] addresses ZIKV subviral particles (SVPs, prM-E of strain H/PF/2013) (Zika virus, strain H/PF/2013).

Where “and” joins values, the source holds several entries; their conditions need not be identical. Equal entries are not always repeated. Where two headings read alike, the source gives them in different places. Bounds are passed on as bounds.

B1: ZV-48 monoclonal antibody (antibody, V domains shown)
VH: QVQLQQPGAELLKPGASVKLSCKASGYSFSNYWMHWVKQRPGQGPEWIGMIHPNSGNTKYNEKFKNKATLTVDKSSSMVYMQLSSLTSEDSAVFYCARLGNDMDYWGQGTSVTVSS
VL: DIVMSQSPSSLAVSVGEKITMSCKSSQSLLYSNNEKNYLAWYQQKPGQSPKLLIYWASARDSGVPDRFTGSGSGTDFTLTISSVKAEDLAVFYCQQYYSYPYTFGGGTKLEIK
notes: also called ZIKV-48
Consider B1, for which the Kd (as a rule, the constant that tells how readily two partners part at equilibrium) in assay [1] was 26.8 nM and 35.2 nM; in [2], approximately 35 nM; in [7], 35 nM. Besides, the koff (in general, the rate constant with which the complex falls apart) in assay [1] was 0.0038 s⁻¹. Also, the kon (as a rule, a measure of how fast the partners come together) in [1] stood at 148000 M⁻¹ s⁻¹. Moreover, the “% Neutralization (undiluted sups), focus reduction on Vero cells” value in assay [3] is 100%. Besides, the binding result in [4] is recorded as “no binding (tested: 0.5 µg/ml)”; in assay [5], “no binding (tested: 0.5 µg/ml)”; in assay [8], “binds”; in [9], “binds”; in assay [10], “binds”. Further, in [6], the “t1/2” value was 3.2 min.

B2: ZV-54 monoclonal antibody (antibody, V domains shown)
VH: QVQLQQSGVGLARPGTSVKLSCKASGYSFTTYGISWVTQRPGQGLEWIGVIYPRSNNTYYNERFRGKATLTADKSSSSAYLELRGLTAEDSAVYFCARENYGSVYWGQGTTLTVSS
VL: DIVMTQSQKFMSTSVGDRVTITCKASQSVGTAVAWYHQKPGQSPKLLIYSASNRYTGVPDRFTGSGSGTDFTLTITYMQSEDLADYFCQQFSNYPFTFGGGTKLEIK
notes: also called ZIKV-54
Take B2: the koff in assay [11] was 0.000312 s⁻¹. For the same molecule, the kon in assay [11] amounted to 149000 M⁻¹ s⁻¹. For the same molecule, the dissociation constant Kd in assay [2] is less than 10 nM; in [7] it was 7.9 nM. Besides, the “% Neutralization (undiluted sups), focus reduction on Vero cells” value in assay [3] was 100%. Further, the binding result in assay [4] is “no binding (tested: 0.5 µg/ml)”; in [5], “no binding (tested: 0.5 µg/ml)”; in assay [8], “binds”; in assay [9] it was “binds”; in assay [10], “binds”. The “t1/2” value in [6] was 33 min.

B3: ZV-67 monoclonal antibody (antibody, V domains shown)
VH: QAQLQQSGTGLARPGASVKLSCKASGYTFTSYGISWVTQRAGQGLEWIGVIYPRSGNTYYNEKFRGKATLTADKSSSSAYMELRGLTAEDSAVYFCARENYGSVYWGQGTTLTVSS
VL: DIVMTQSQKFMSTSVGDRVSITCKASQNVGTAVAWYQQKPGQSPKLLIYSASNRYTGVPDRFTGSGSGTDFTLTISNMQSEDLADYFCQQFSSYPYTFGGGTKLEIK
notes: also called ZIKV-67
On to B3, for which the dissociation constant Kd was 6.77 nM and 9.89 nM in assay [12]; less than 10 nM in [2]; 8.8 nM in assay [7]. The EC50 (read off the curve) – broadly, the concentration at which the effect is half-maximal – in assay [13] is approximately 5 ng/mL. Moreover, in [3], the “% Neutralization (undiluted sups), focus reduction on Vero cells” value was 100%. In addition, the binding result is recorded as “no binding (tested: 0.5 µg/ml)” in [4]; “no binding (tested: 0.5 µg/ml)” in assay [5]; “binds” in assay [8]; “binds” in assay [9]; “binds” in assay [10]. Besides, the “t1/2” value in assay [6] is 13.8 min.

B4: ZV-2 monoclonal antibody (antibody, V domains shown)
VH: QVQLQESGAELMKPGASVKLSCKTSGYTFIGYWIEWLKQRPGHGLEWVGEIFPGSGRTKYNEKFKGRATFTADTSSNMAYMQLSSLTTEDSAIYYCARYYYGSYYALDYWGQGTSVTVSS
VL: DIVMTQSPSSLSVSAGEKVTLSCKSSQSLLHSGNQKNYLAWYQQKPGQAPKLLIYGASTRESGVPDRFTGSGSGTDFTLTISSVQAEDLAVYYCQNDHSYPLTFGAGTKLELK
notes: also called ZIKV-2
As for B4, the Kd in assay [1] is 121 nM and 295 nM; in [2] it was more than 250 nM; in assay [7], 266 nM. Further, the “% Neutralization (undiluted sups), focus reduction on Vero cells” value in [3] was less than 30%. For the same molecule, the binding result is recorded as “no binding (tested: 0.5 µg/ml)” in assay [4], “no binding (tested: 0.5 µg/ml)” in assay [5] and “binds” in [9]. Further, the “t1/2” value in [6] was 0.3 min.
